15 sequences from a protein production outcome set (Wang et al. 2014) can be followed below.

This data set can be described thus: label from the status in PepcDB records.
In the case of “MSQEYTEDKDVTLTKLSSGRRLLEALLILIALFAVWLMAALLSFNPSDPSWSQTAWHEPIHNLGGAPGAWLADTLFFIFGVMAYTIPVIIVGGCWFAWRHQSTDDYIDYFAVSLRLIGVLALILTSCGLAAINADDIWYFASGGVIGSLLSTTLQPLLHSSGGTIMLLCIWAAGLTLFTGWSWVSIAEKLGGWLLNILTFASNRTRRDDTWVDDEEYDDEYDEETDGVQRESRRARILRGALARRKRLAEKFSNPRGRQTDAALFSGKRMDDDEDIQYSARGVAADPDDVLFSGNRATQPEYDEYDPLLNGHSVTEPVAAAAAATAVTQTWAASADPIMQTPPMPGAEPVVAQPTVEWQPVPGPQTGEPVIAPAPEGYQPHPQYAQPQEAQSAPWQQPVPVASAPQYAATPATAAEYDSLAPQETQPQWQAPDAEQHWQPEPTHQPEPIAAEPSHMPPPVIEQPVTTEPEPGIEETRPARPPLYYFEEVEEKRAREREQLAAWYQPIPEPVKENVPVKPTVSVAPSIPPVEAVAAAASLDAGIKSGALAAGAAAAAPAFSLATGGAPRPQVKEGIGPQLPRPNRVRVPTRRELASYGIKLPSQRIAEEKAREAERNQYETGVQLTDEEIDAMHQDELARQFAQSQQHRYGETYQHDTQQAEDDDTAAEAELARQFAASQQQRYSGEQPAGAQPFSLDDLDFSPMKVLVDEGPHEPLFTPGVMPESTPVQQPVAPQPQPQYQQSQQPVAPQSQYQQPQQPVAPQPQPQYQQSQQPVAPQSQYQQPQQPVAPQPQYQQPQQPVAPQPQYQQPQQPTAPQPQYQQPVAPQPQYQQPQQPVAPQPQYQQPQQPTAPQDSLIHPLLMRNGDSRPLQRPTTPLPSLDLLTPPPSEVEPVDTFALEQMARLVEARLADFRIKADVVNYSPGPVITRFELNLAPGVKAARISNLSRDLARSLSTVAVRVVEVIPGKPYVGLELPNKKRQTVYLREVLDNAKFRENPSPLTVVLGKDIAGDPVVADLAKMPHLLVAGTTGSGKSVGVNAMILSMLYKAQPEDVRFIMIDPKMLELSVYEGIPHLLTEVVTDMKDAANALRWSVNEMERRYKLMSALGVRNLAGYNEKIAEAARMGRPIPDPYWKPGDSMDVQHPVLEKLPYIVVLVDEFADLMMTVGKKVEELIARLAQKARAAGIHLVLATQRPSVDVITGLIKANIPTRIAFTVSSKIDSRTILDQGGAESLLGMGDMLYSGPNSTMPVRVHGAFVRDQEVHAVVQDWKARGRPQYVDGITSDSESEGGGGGFDGGEELDALFDQAVNFVTQKRKASISGVQRQFRIGYNRAARIIEQMEAQGIVSAQGHNGNREVLAPPPFE”, the protein production result is given as “failed”.

As to “MPAKQPTPKQEPATKAGRCLARSFMKTLIKDCSVSAIVAGSIATTISYAGPLVIIFHAAEAAGLSHQQLSSWVWAVSMGSALLGALLSLRYRVPVVIAWSIPGSALLVTALPQLGLEQAVGAYLVANLVLLLIGISGAFDRIIARLPGSIAAGMQAGILFSFGIEVFRALPVQPLLVLAMFVTYVLMRRVQPRYAVAAVLGVGMLVTVASGTLRSEALVLELASPQWITPQFSLSAVFSLALPMVLVALTGQFMPGMAVLRNAGYPTPASPLISASALIGVLLAPFGCHGLNLAAVTASLCTGHEAHENPQRRYVAAVAGSVLYLLLGIAGATLMSLFAAFPAVLIAALAGLALYGAISEALVRSLAEPAERDAGLFTFLVTASGVAFLGLSAAFWGLLFGLLAHALLRLRQPRAREVLRRTP”, the protein production result was “not failed”.

For “MLCCLRIENFALIDHLELDLQAGLMVLTGETGAGKSIILDALDLALGGKATARLIRAKNDQGDATGERAFIEATFSLTPSIKQWLQSQDIDLLEDETVICSRELSLTRTGLRSRSRVNGIILNQGLMAELRAQLLEITAQGQTVELLIPERQRILLDSYGGSQVQQQRQLVNLAYQTYLKAKQLLESRRTSEQERLQRLDLLQYQLQELRDAHLEDSEELETLQQEGDRLSHVVELQQLSYQAHQILYQNDDPETPAVADLLGEAENLLKEMVDYDTQLNGILD”, the protein production entry is recorded as “failed”.

Consider “MQASENSHDDFLFIDDSDEDEILAFGSNETWQVLIVDDDPEIHSVTQLALSDLVVLGRRLEYLHAYSGKDACQLIENNDDIVLVLLDVVMETDDAGLNVVKYIRETLQRKDIRIVLRTGQPGYAPEESVIKEYDINDYKTKTELTRRKLVTTVFAAIRSFQQIATVNENRQGLEKIVSGATELSSQHSLPTFSQSVLSQLRTLISDDISAVFCARGQGIIDNIDDLSFYVLAQIGFDDSLLNQKIDTLQDNQANKQVKACFLQQKHQYLDDSLDLYVAKGDYRAVIHVRLSSPLTEIQTQLLNVFLTGVAVGYENVHLFQKLTNAAYRDWLTNLPNRLEFVRLLDSFAQNDCKNTVAALIDINHFSDINDALGQDIGNKLLSAVGQRIQSIGSDCQLARVGADVFGIIGPADCLTPESLIALFHQPFAAGEQHLPINACFGLCTKEHAQSSGVQVLNQINIALNIAKKNRLEHFAYYHSDIEDQMQWRLNMIRQLRNDFGNNCLELWYQPQLSLTTGKVIGAEALLRWRTADGKFVSPAVFIPLAEYSGLIIEIGDWVISQACKQLKVLEENFSDLSISVNVSIPQFRQDNFVDNIINTMTQYGIKPNKLELEITENILMDEPQIIIDALTKLKAQGISIALDDFGTGFSSLSYLQKLPLNRLKVDRAFVTDINKEGQSVIAETIINLGKKMQLKVIAEGIEEIEQQERLIELGCDEVQGFYYAKPMPADEFINFLHQQS”, for which the protein production result is given as “failed”.

Regarding “MAGAGGGNDIQWCFSQVKGAVDDDVAEADIISTVEFNHSGELLATGDKGGRVVIFQQEQENKIQSHSRGEYNVYSTFQSHEPEFDYLKSLEIEEKINKIRWLPQKNAAQFLLSTNDKTIKLWKISERDKRPEGYNLKEEDGRYRDPTTVTTLRVPVFRPMDLMVEASPRRIFANAHTYHINSISINSDYETYLSADDLRINLWHLEITDRSFNIVDIKPANMEELTEVITAAEFHPNSCNTFVYSSSKGTIRLCDMRASALCDRHSKLFEEPEDPSNRSFFSEIISSISDVKFSHSGRYMMTRDYLSVKIWDLNMENRPVETYQVHEYLRSKLCSLYENDCIFDKFECCWNGSDSVVMTGSYNNFFRMFDRNTKRDITLEASRENNKPRTVLKPRKVCASGKRKKDEISVDSLDFNKKILHTAWHPKENIIAVATTNNLYIFQDKVN”, the protein production result is on record as “failed”.

With “MGMAASFARASSVIMPAPPRRYFSRQRFHNFRRLAIIGSKATRSGDTAAMTDGKHLDALTAAYAAKRPEEVAALYDRWSRTYDADMSAAGYRHPTICLALLTRHLPRGAAPLLDAGAGTGLIGEWLDISGYPEVEALDISQGMLDQAARKGVYSALHCLALGGALPFADDAYAGIVSAGVFTSGHVGVEGLNELIRICRPGGVIVLTVKNTLWEQGFAARIAELEAQGVVTRAEETRPYVSMPGEADTVPSRGLALRVN”, the protein production entry is recorded as “failed”.

For “MSAPSSPSTSQTRPPARSLWRRRRTWFLVGGGGLGAAAVVVLLGIWWRSPTPEAAIALRQSDFAELRWQSRFAMDAATRQRARFLYALAIAPDQPQAALQALQGLERSYPLLGPYILKLRAQVQTQLGQDPRETWRQLLNTYPESPVQAEAVLALGQWDLAPATIQRWPRYPASNELARQLAKRQPAEAKRWLLQIAQFGRYRFDIDAVLSELQALPNLTARDRQQIADAYWQRDDYATAADLYARSPQTDETLYRQARSLDLTSQPEVARTLYQQLLQRFPQSPERERALVHLVRLDPANRDRYLQLLERQFALSLPEALGLAAATEPRYRPILLQRFPASPEAAALRWQQAWQQAEAGNLPQAIALVTQTRDRSPTIEAAAQAGFWLGRWQTQLGQTDAAQAAWQWVLQQHPDSYYAWRSAAALGWPVGDFSQVQAQQPAWPQAQSPQALPAGSAVLKELYALGQTEDAWRLWQQEGPSRDPSPSDRFISALLEASISRYDRAASLLKGLPIDSPLRQRSDFVSTLYPVVFKEEITAATQRDRLNPLLVLGLIRQESRFLPGATSVVGARGLMQLMPETAAEVAAELGLQQYDLGDPQTNIQLGSRYLRNVLDYWREDSLFAIASYNAGPGNVENWVRRFGRRDRDRWLEQIPFPETRDYVEKVLSNYWNYLRQSDRSLEQRLQQLDR”, the protein production entry is recorded as “failed”.

On to “RDRPAGLLRINATLGFGRTHLAPAIARFRRIHPAVEVQLLLTDAPLNLVEEGIDLGIRFGAPPFGRMVMRLLQRNRRFLCAAPSYLEARGVPQSLTDLQQHSCIVLRQDHDAYDVW”, for which the protein production entry is reported as “failed”.

As to “MSRAEKSTAEQSGHIQHGVRKAAGVVFMVFGTMCFASKSIFVKWAYEQGAQPEAVLLYRQLFAAPLFWLIFIVYRSKLPAKPEKAEIFKACAAGLLCFFLSPLLDFIGLHGVSATVERMIVMSYPMFVLIITAFVNKKMVSGKTFAAILLVNAGLFLAVGGWDVQALEANLSGAFLILLSAVAYAAYLVVAGGLVRQIGGIRMNAYGMSAASLAMAGYALLRSLREQPGIVLSYPPAMYGFFMIIAAVTTVIPFLFMLEGMKRIGAERGAVISMIGPVLTIFGGVLFLNERLTPVQWLGCLLVHLTVSLLEYRK”, the protein production result was “failed”.

Take “MFTNSGVFIMYKILEKKEIAMRNTWYKIYAPHVAKKVQPGQFVIVRAFPNGERIPLTPIMWDREEGWIVLVAFTKGKTTMKMAMELKEGDEILNVAGPLGNPAPMEKFGKILAIGAYVGIAEVYPIAKAWQEIGNDVTTLHVTFEPMVILKDYFEKAVSRHIVEPVKIDQEKSFQENTKNVTKALTAKVKELLDNENWDLVFMVGPPGDQKAVFEVVKKYGIPMKVDLHPIMVDGTGMCGACRVTVGGEVKFACVDGPEFDAYLVDWDELIHRVGFYSKLEKLALEKYMEELKAKGVI”: the protein production result is given as “failed”.

On to “MQNPAGNPYNLDSFWFEQLMSHPSLNHAKMATRIQDETLEREVADLVISTLNLDVSPESVDPEAPLYREGLGLDSIDILEIALVVSKRYGFQLRADNEDNVRIFGSLRSLCQHIAANRVECLEHHHHHH”, for which the protein production result was “not failed”.

On to “MLMSEIGQIAAILATAREVAVATHIIPDGDCLGSMLGLTLALRKRGTSVIAINADPVPEMFQYLPGQETIIDPDQVTSMPPLLVMVDCTDMERAGKGFSNWQQRVEKIINIDHHVSNTRFGHLNLVDSRAAATAELIYAVLEQIPATFTPEVATCLYTALATDTGSFQYENCTARTLRLAASLLEKGADMPLIREHLWESKPLNSIRLLAATLPTLTLAYEGRVAWMTVSRAALEANGARPEHAEGLVNYPRSIAGVEVGMLFRELPDGKVKVSLRSKKIVDVNRVAALFGGGGHRRAAGCTLDGDLDTVVARVVAAAGEAL”, for which the protein production result is “failed”.

As for “MRSPIKLEFSEKYDKDHAREYFLKHQDGLARRLSHKRDEQLARRALALAGEPGLVLDLPCGAGRFWPLLAEKPNRVIIGADNSEAMIETACAAQPPEVVARVRPLQTSAFAIDLPDNAVDSIFCMRLFHHIGESAHRKTILSEFQRVSRDSVILSLWVDGNFKAWRRKKLEQRRSAKAEQDNYQNRFVLPAETVEEEFRAAGFRIQERLDFLPFYAMWRVYVLRKG”, the protein production entry is “failed”.

For “MKKKYTIFAISMAVALVLGGEVQSINDSVEAQELQHTVKNVKQTEDFNPTKYANEIENFVKQQNPVSIKSLFSTIALKEKADFEKYGEANAAQVKMLWGSYVFFDFGFVKDSKIIEAIKNNPSVYAKFKKTVNINGTGAFLPGTGSPESISIKNNEDGSNIDSYAYYTPHNPDITKNADKTVVMHGGFRGGYEAGNDTPEIRTFYDKGYNILCVDNRATSLSGGDYVTFGQYESDDVQAWINHYLKDKPDQKIVLYGGSMGASTMMSVLAKNYSSNIKGIIENCGFANIRNELGYVYTMAAIGKNELKDLTGTDFAEDFSVTPMNLQKMMETINNYYIKPKANVDIDGNLPAQGITNAIMPKLFIHGESDLVVPFKDNGQYLATLGDTNNNYKFFVPKAGHGEAQTIDGNGYDKAISDYLNLIFK”, the protein production entry is “failed”.

With “RPHVVKVYSEDGACRSVEVAAGATARHVCEMLVQRAHALSDETWGLVECHPHLALERGLEDHESVVEVQAAWPVGGDSRFVFRKNFA”, the protein production result is “not failed”.
